Source: patent US20020164696

Assays:
[1] = biological target: T1, synthetic peptide corresponding to bovine kappa-CN
T1 chain: HPHPHLSXMAI

[2] = biological target: T2, synthetic peptide corresponding to camel kappa-CN
T2 chain: RPRPRPSXIAI

B1: recombinantly produced bovine chymosin, ChyMax (protein)
chain: GEVASVPLTNYLDSQYFGKIYLGTPPQEFTVLFDTGSSDFWVPSIYCKSNACKNHQRFDPRKSSTFQNLGKPLSIHYGTGSMQGILGYDTVTVSNIVDIQQTVGLSTQEPGDVFTYAEFDGILGMAYPSLASEYSIPVFDNMMNRHLVAQDLFSVYMDRNGQESMLTLGAIDPSYYTGSLHWVPVTVQQYWQFTVDSVTISGVVVACEGGCQAILDTGTSKLVGPSSDILNIQQAIGATQNQYGEFDIDCDNLSYMPTVVFEINGKMYPLTPSAYTSQDQGFCTSGFQSENHSQKWILGDVFIREYYSVFDRANNLVGLAKAI
B1 was tested, and the “KM for Bt κ-CN” value [1] was 0.165 ± 0.015/-0.014 mM, the kcat for Bt κ-CN [1] was 44.3 s⁻¹ and the “KM for Cd κ-CN” value [2] was 0.134 ± 0.022/-0.021 mM. The kcat for Cd κ-CN [2] was 4.3 s⁻¹.

B2: recombinant Camelus dromedarius chymosin (protein)
chain: GKVAREPLTSYLDSQYFGKIYIGTPPQEFTVVFDTGSSDLWVPSIYCKSNVCKNHHRFDPRKSSTFRNLGKPLSIHYGTGSMEGFLGYDTVTVSNIVDPNQTVGLSTEQPGEVFTYSEFDGILGLAYPSLASEYSVPVFDNMMDRHLVARDLFSVYMDRNGQGSMLTLGAIDPSYYTGSLHWVPVTLQQYWQFTVDSVTINGVAVACVGGCQAILDTGTSVLFGPSSDILKIQMAIGATENRYGEFDVNCGNLRSMPTVVFEINGRDYPLSPSAYTSKDQGFCTSGFQGDNNSELWILGDVFIREYYSVFDRANNRVGLAKAI
With B2 the “KM for Bt κ-CN” value [1] was 0.077 ± 0.019/-0.015 mM, the “kcat for Bt κ-CN” value [1] was 11.7 ± 1.5/-1.2 s^-1 and the “KM for Cd κ-CN” value [2] was 0.056 ± 0.035/-0.021 mM. The “kcat for Cd κ-CN” value [2] was 5.1 ± 1.7/-1.0 s^-1.
